From publication PMC7503162

Assays:
LRP1 (Homo sapiens) = LRP1 (Homo sapiens) (UniProt Q07954); details: cited from earlier work
[1] = biological target: Recombinant human LRP1 cluster III Fc chimera protein (human); assay: SPR
[2] = biological target: Recombinant human LRP1 cluster IV Fc chimera protein (human); assay: SPR
[3] = biological target: Recombinant human LRP1 cluster II Fc chimera protein (human); assay: SPR
[4] = biological target: Low-density lipoprotein receptor-related protein 1 (LRP1), purified from human placenta (human (purified from human placenta)) (UniProt Q07954); assay: SPR
Sequence of Low-density lipoprotein receptor-related protein 1 (LRP1), purified from human placenta (human (purified from human placenta)) (Q07954 20-4544): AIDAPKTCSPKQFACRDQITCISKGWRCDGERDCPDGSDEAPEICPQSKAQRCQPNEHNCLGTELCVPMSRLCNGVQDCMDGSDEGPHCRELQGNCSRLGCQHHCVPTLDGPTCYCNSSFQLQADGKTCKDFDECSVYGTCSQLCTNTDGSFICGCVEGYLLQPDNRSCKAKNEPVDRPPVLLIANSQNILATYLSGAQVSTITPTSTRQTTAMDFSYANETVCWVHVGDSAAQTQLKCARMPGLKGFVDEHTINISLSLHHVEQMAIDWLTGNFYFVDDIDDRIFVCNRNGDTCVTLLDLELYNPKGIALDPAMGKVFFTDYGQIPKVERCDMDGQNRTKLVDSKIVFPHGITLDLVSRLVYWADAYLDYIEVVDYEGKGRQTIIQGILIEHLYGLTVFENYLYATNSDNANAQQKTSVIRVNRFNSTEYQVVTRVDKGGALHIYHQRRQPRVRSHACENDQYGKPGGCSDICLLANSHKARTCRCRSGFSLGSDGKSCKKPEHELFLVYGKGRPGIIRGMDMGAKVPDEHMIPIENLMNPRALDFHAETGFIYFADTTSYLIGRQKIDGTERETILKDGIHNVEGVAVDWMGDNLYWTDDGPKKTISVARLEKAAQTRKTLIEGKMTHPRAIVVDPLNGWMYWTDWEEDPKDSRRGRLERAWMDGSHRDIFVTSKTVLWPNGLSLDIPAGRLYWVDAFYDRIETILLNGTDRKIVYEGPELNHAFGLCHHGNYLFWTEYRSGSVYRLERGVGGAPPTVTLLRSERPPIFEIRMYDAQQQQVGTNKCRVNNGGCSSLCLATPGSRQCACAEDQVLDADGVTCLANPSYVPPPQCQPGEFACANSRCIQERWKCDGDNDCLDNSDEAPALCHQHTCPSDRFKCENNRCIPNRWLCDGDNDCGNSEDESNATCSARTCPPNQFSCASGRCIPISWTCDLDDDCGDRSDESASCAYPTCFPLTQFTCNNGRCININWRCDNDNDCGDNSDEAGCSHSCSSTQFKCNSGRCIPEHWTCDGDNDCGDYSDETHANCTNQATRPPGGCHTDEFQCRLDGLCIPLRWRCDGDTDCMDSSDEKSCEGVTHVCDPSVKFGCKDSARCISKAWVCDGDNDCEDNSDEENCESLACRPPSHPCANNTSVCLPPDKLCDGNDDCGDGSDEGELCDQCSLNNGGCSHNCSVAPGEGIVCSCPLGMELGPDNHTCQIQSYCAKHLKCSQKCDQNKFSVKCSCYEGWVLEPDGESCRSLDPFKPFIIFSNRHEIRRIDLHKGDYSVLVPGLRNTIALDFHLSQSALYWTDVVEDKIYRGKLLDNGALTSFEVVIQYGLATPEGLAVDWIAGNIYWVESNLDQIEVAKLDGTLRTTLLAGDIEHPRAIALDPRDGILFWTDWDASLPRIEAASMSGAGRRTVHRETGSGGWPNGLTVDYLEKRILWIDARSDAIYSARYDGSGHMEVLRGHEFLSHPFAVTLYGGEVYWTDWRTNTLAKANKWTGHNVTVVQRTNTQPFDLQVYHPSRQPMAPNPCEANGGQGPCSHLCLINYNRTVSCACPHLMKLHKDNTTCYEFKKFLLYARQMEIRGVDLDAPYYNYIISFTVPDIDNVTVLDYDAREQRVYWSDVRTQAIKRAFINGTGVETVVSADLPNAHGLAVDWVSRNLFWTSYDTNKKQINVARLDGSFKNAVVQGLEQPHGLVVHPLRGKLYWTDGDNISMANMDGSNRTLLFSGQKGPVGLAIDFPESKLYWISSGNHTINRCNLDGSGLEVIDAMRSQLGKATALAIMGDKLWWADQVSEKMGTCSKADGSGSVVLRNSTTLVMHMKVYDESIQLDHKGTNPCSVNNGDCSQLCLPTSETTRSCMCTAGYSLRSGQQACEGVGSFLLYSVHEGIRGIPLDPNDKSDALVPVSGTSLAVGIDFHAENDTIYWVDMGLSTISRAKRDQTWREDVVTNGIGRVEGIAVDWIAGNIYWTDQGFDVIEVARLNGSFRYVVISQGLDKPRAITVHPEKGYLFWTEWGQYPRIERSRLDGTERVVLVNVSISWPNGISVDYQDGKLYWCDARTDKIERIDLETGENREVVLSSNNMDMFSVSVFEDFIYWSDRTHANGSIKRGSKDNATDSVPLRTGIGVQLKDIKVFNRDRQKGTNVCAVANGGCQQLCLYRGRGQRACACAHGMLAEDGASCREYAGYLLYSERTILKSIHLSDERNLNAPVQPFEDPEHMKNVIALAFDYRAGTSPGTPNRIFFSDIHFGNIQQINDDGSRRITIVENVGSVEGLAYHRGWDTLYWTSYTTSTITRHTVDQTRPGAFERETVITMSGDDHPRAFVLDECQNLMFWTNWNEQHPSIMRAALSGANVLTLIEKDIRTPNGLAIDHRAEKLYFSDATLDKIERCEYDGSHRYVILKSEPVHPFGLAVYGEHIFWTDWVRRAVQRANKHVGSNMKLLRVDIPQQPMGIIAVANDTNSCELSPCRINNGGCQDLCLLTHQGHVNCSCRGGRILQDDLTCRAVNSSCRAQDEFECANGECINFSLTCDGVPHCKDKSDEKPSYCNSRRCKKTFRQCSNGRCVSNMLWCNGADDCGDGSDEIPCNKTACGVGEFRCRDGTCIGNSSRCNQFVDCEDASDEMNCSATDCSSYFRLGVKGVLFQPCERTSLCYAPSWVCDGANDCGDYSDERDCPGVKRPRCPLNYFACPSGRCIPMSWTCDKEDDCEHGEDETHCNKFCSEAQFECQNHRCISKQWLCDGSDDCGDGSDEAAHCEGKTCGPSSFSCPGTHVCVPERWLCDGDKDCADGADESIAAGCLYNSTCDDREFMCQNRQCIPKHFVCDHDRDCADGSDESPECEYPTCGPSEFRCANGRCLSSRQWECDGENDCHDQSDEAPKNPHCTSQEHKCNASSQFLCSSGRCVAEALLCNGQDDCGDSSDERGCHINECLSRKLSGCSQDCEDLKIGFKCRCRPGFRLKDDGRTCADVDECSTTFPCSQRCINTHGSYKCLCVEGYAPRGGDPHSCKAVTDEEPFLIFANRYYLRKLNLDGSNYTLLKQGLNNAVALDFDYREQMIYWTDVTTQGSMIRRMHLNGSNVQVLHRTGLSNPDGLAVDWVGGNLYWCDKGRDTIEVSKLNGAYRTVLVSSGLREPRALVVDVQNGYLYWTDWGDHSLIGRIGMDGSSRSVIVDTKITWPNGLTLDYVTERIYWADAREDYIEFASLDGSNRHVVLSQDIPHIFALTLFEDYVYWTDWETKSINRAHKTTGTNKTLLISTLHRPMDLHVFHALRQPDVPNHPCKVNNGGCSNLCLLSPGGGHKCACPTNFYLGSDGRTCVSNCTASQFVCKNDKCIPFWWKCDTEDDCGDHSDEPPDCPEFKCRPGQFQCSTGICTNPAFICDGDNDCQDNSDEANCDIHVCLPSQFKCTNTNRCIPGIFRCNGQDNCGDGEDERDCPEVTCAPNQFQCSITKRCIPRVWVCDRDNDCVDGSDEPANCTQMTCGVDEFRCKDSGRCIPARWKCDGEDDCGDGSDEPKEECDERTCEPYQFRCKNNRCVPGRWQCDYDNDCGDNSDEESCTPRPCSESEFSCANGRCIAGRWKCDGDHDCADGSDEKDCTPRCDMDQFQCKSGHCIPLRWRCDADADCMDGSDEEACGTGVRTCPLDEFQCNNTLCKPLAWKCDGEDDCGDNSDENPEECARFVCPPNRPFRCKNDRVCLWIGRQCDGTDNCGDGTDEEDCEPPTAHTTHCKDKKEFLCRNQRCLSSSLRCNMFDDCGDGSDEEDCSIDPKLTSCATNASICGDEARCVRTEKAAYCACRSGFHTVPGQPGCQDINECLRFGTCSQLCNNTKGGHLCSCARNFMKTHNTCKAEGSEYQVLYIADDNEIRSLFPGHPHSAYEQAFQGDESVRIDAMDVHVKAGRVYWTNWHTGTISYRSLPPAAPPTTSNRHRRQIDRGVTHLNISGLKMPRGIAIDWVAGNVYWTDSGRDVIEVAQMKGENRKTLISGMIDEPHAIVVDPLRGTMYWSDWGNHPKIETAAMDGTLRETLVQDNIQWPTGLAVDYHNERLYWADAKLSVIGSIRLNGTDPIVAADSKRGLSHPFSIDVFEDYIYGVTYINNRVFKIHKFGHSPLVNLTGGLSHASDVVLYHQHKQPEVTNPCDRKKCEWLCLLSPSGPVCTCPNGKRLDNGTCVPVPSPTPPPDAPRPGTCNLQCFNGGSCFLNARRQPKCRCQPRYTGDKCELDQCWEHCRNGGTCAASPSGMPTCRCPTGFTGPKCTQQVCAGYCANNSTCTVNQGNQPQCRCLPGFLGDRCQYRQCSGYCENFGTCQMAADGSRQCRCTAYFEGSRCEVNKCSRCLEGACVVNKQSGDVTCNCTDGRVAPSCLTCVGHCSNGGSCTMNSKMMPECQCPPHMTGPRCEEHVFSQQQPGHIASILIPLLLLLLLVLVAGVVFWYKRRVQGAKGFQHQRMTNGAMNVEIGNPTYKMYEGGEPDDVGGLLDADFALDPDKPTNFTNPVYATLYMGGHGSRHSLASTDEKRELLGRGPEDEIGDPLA

Sequence of Tissue inhibitor of metalloproteases 1 (TIMP-1) (P01033 24-207): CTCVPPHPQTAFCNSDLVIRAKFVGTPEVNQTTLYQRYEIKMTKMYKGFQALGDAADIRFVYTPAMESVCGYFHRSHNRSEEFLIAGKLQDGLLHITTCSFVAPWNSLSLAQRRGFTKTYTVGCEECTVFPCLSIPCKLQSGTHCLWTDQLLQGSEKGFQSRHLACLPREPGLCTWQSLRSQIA
Sequence of LRP1 (Homo sapiens) (Q07954 20-4544): as the sequence (Q07954 20-4544) above

Substance	Kd [1] [µM]	Kd [2] [µM]	Kd [3] [µM]	ka2 (bivalent model, second step) [4] [s⁻¹]	kd1 (bivalent model, first step) [4] [s⁻¹]	kd2 (bivalent model, second step) [4] [s⁻¹]	other results
MMP-1/TIMP-3 complex (from UniProt P03956)	–	–	–	–	–	–	Kd (LRP1 (Homo sapiens)): 0.005 µM
Human His-tagged proMMP-1 (from UniProt P03956 20-469) (enzyme)	0.034	0.358	0.169	–	–	–	–
Active MMP-1 (enzyme)	–	–	–	0.0084	0.017	0.0015	Kd [4]: 0.025 µM

Continued, in another order:

Kd [1] [µM]	Kd [2] [µM]	Kd [3] [µM]	ka2 (bivalent model, second step) [4] [s⁻¹]	kd1 (bivalent model, first step) [4] [s⁻¹]	kd2 (bivalent model, second step) [4] [s⁻¹]	Substance	other results
0.012	0.032	0.027	0.012	0.026	2.7e-05	MMP-1/TIMP-1 complex (from UniProt P01033 24-207)	ka1 (bivalent model, first step) [4]: 93000 M⁻¹ s⁻¹; ka1 (bivalent model, first step) [1]: 200000 M⁻¹ s⁻¹; ka2 (bivalent model, second step) [1]: 0.019 s⁻¹; kd1 (bivalent model, first step) [1]: 0.079 s⁻¹; kd2 (bivalent model, second step) [1]: 0.00062 s⁻¹; ka1 (bivalent model, first step) [2]: 99000 M⁻¹ s⁻¹; ka2 (bivalent model, second step) [2]: 0.02 s⁻¹; kd1 (bivalent model, first step) [2]: 0.064 s⁻¹; kd2 (bivalent model, second step) [2]: 0.001 s⁻¹; ka1 (bivalent model, first step) [3]: 120000 M⁻¹ s⁻¹; ka2 (bivalent model, second step) [3]: 0.02 s⁻¹; kd1 (bivalent model, first step) [3]: 0.077 s⁻¹; kd2 (bivalent model, second step) [3]: 0.00085 s⁻¹
0.039	0.391	0.129	–	–	–	Tissue inhibitor of metalloproteases 1 (TIMP-1) (from UniProt P01033 24-207) (natural protein)	–
